In the Human Domainome abundance scans (Beltran et al. 2025):

B1: RNA-binding E3 ubiquitin-protein ligase MEX3C, residues 325 to 391; numbered along this chain, Q5U5Q3 (parent)
chain: GQTTVQVRVPYRVVGLVVGPKGATIKRIQQQTHTYIVTPSRDKEPVFEVTGMPENVDRAREEIEMHI

Variants of: B1
Assay: abundance fitness (aPCA) (normalised: wild type 0, dead -1); higher = more abundant; growth selection in yeast, the domain comes from the species named
Conditions: Homo sapiens

Abundance fitness of substitutions, site by site:
P53: D -0.597, W -0.871, R -0.167, C -0.514, M -0.433, K -0.012, Q -0.173, S -0.279, F -0.488, N -0.295, V -0.734, A -0.141, G -0.541, I -0.689, T -0.375
R58: M -0.409, N -0.434, G -0.675, C -0.36, T -1.1, F -0.519, V -0.616, W -0.555, P -1.09, S -0.614, I -0.954, Q -0.304, E -0.572, K 0.067, D -0.73
E62: G -0.679, A 0.025, Q 0.034, K -0.126, V -0.114, Y -0.255, T -0.52, I -0.318, N -0.639, S -0.373, H -0.602, C 0.054, D -0.494, R -0.299, M 0.132, P -1.01, L 0.115
K43: Y -0.46, V -0.423, Q -0.059, M 0.125, T -0.05, S 0.12, R -0.133, N -0.093, P -0.565, W -0.435
F47: R -0.706, D -1.01, I -0.853, Q -0.648, E -0.658, T -0.511, W -0.412, V -0.792, M -0.808, S -0.835, P -0.974, A -0.889, Y -0.677, C -0.411, G -0.661, N -0.442
E54: R -0.248, I -0.377, S -0.213, Y -0.382, D -0.119, P -0.235, H -0.332, Q -0.321, F -0.815, L -0.325, M -0.575, V -0.485, A -0.079, K -0.519, N -0.419, W -0.174, T -0.267, G -0.179, C -0.482
T50: H -0.315, K -0.52, P -0.916, Q -0.624, I -0.494, W -0.545, Y -0.598, L -0.547, F -0.618, M -0.378, G -0.651, V -0.745, C -0.313, N -0.792, E -0.835, S -0.254
A59: S -0.829, Q -0.802, H -0.859, E -0.967, C -0.374, T -0.929, D -0.915, M -0.313, L -0.886, V -0.719, P -0.854, K -0.671, W -1.08, I -1.08, R -0.762
V46: T -0.526, S -0.774, A -0.676, P -0.66, G -0.7, I -0.093, W -0.662, H -0.579, Q -0.621, C -0.645, M -0.361, K -0.321, L -0.332, E -0.767, N -0.62, R -0.607, F -0.503, Y -0.146
G51: L -0.794, K -0.448, T -1.05, H -0.789, D -0.656, Q -0.776, F -0.701, W -0.951, S -0.918, Y -0.918, E -0.599, R -0.726, P -0.78, C -1.05
P45: S -0.387, T -0.493, A -0.422, K -0.42, V -0.919, Q -0.458, H -0.502, G -0.434, C -0.47, F -0.417, M -0.467, E -0.375, N -0.821, I -0.622, L -0.479, R -0.564, D -0.677
D57: P -0.673, Q -0.108, H -0.472, R 0.018, A 0.151, F -0.176, Y -0.303, S -0.229, V -0.143, L -0.057, N 0.069, M 0.132, K 0.22, I -0.11, E 0.137, G -0.198, T 0.013, W -0.245, C -0.072
N55: A -0.146, T -0.627, I -0.646, F -0.711, L -0.885, Y -0.811, D 0.033, K -0.647, Q 0.138, R -0.789, G -0.281, V -0.8, C -0.544, W -1.17, M -0.541, E -0.401, S -0.426
M52: W -0.369, R -0.167, C -0.194, H -0.515, S 0.006, L -0.04, N -0.99, V -0.482, K -0.075, A -0.141, I -0.183, D -0.13, Q -0.021, Y -0.19, T 0.185, F -0.206, G -0.596, E -0.2
E61: D -0.043, A 0.014, G -0.343, Q -0.023, P -0.85, N -0.36, S -0.089, W -0.353, K 0.069, I -0.472, H 0.022, V -0.17, M -0.161, Y -0.177, L -0.266, T -0.037, F -0.342
V56: R -0.799, M -0.455, Y -0.62, D -0.75, E -0.927, A -0.585, W -0.809, T -0.286, Q -0.455, I -0.21, H -0.712, N -1.11, L -0.574, K -0.402, S -0.496, C 0.009
R60: C -0.025, I -0.026, P -0.651, L -0.098, D -1.13, W -0.53, F -0.526, K -0.024, H -0.401, M -0.296, E -0.739, G -0.575, A -0.694, Q -0.639, V -0.006, T -0.557
E48: S -0.245, F -0.068, C -0.357, V -0.292, A -0.356, Q -0.204, P -0.771, N -0.733, D -0.534, L -0.029, M -0.04, I -0.007, H -0.155, G -0.748, W -0.124
E44: R -0.719, T -0.798, M -0.687, C -0.834, P -0.374, A -0.177, S -0.459, G -0.492, F -0.906, N -0.222, V -0.472, W -0.695, K -0.697, Q -0.305, L -0.582
I63: G -0.899, C -0.734, A -0.845, H -0.772, M -0.772, W -0.768, S -0.894, P -0.461, Q -0.863, N -0.094, V -0.512, L -0.412
V49: K -0.702, P -1.34, Y -0.804, S -0.843, D -0.71, M -0.793, W -0.99, F -0.842, R -0.788, I 0.129, Q -0.901, T -0.626, A -0.682, N -0.675, L -0.62, C -0.668, G -0.469
